Laboratory results reported in FireProtDB (doi:10.1016/j.bpc.2007.01.006).
Several values for one entry are separate records, joined by “and”; a condition that tells them apart may be missing. Equal values may be shown once.

Details: Bos taurus, pH 2, 25 °C, Glycine-HCl 0.05 M, KCl 0.1 M, reversible: Yes, whole UniProt chain shown
[1] = GdnHCl, Fluorescence, transition: 3

B1: Beta-lactoglobulin wild type, P02754 (protein)
chain: MKCLLLALALTCGAQALIVTQTMKGLDIQKVAGTWYSLAMAASDISLLDAQSAPLRVYVEELKPTPEGDLEILLQKWENGECAQKKIIAEKTKIPAVFKIDALNENKVLVLDTDYKKYLLFCMENSAEPEQSLACQCLVRTPEVDDEALEKFDKALKALPMHIRLSFNPTQLEEQCHI
In the case of B1, the denaturant m value [1] is reported as 4.97 kcal/mol/M and 4.1 kcal/mol/M, the “denaturant midpoint (higher = more stable)” value (“denaturant midpoint” below) [1] is reported as 1.44 M and 3.14 M and the unfolding free energy [1] is reported as 7.15 kcal/mol and 4.88 kcal/mol. The denaturant m value (Urea, Absorbance) was 1.62 kcal/mol/M, the “denaturant midpoint” value (Urea, Absorbance) was 5.3 M and the unfolding free energy (Urea, Absorbance) was 8.58 kcal/mol. For the same protein, the denaturant m value (Urea, CD) was 1.06 kcal/mol/M and 1.08 kcal/mol/M and 1.1 kcal/mol/M, the “denaturant midpoint” value (Urea, CD) was 6 M and 6.34 M and 6.55 M and the unfolding free energy (Urea, CD) was 6.41 kcal/mol and 6.84 kcal/mol and 7.17 kcal/mol. For the same protein, the denaturant m value (Urea, Fluorescence) was 1.56 kcal/mol/M, the “denaturant midpoint” value (Urea, Fluorescence) was 5.42 M and the unfolding free energy (Urea, Fluorescence) was 8.41 kcal/mol.
